Drawing on PMC6957217, this text covers fold binding against the WT needle for one molecule.

In this assay the target is Three of the mutant needles, I933A, N937A, and G938A. As to the kind of experiment: ELISA; gp37 trimers coated (100 ng/well) overnight at 4°C, casein block, OmpC added (various molar ratios; gp37:OmpC 1:1 for the mutants), 37°C 2 hr, PBS-T washes, bound OmpC detected with mouse anti-OmpC sera and HRP anti-mouse IgG. (ELISA stands for enzyme-linked immunosorbent assay.)

B1: recombinant OmpC trimer (outer membrane protein C) (natural protein)
chain: AEVYNKDGNKLDLYGKVDGLHYFSDNKDVDGDQTYMRLGFKGETQVTDQLTGYGQWEYQIQGNSAENENNSWTRVAFAGLKFQDVGSFDYGRNYGVVYDVTSWTDVLPEFGGDTYGSDNFMQQRGNGFATYRNTDFFGLVDGLNFAVQYQGKNGNPSGEGFTSGVTNNGRDALRQNGDGVGGSITYDYEGFGIGGAISSSKRTDAQNTAAYIGNGDRAETYTGGLKYDANNIYLAAQYTQTYNATRVGSLGWANKAQNFEAVAQYQFDFGLRPSLAYLQSKGKNLGRGYDDEDILKYVDVGATYYFNKNMSTYVDYKINLLDDNQFTRDAGINTDNIVALGLVYQF
Consider B1, for which the fold binding against the WT needle was 2 to 3 fold.
